Assay results from patent US8507651B2, “Treatment of diseases and conditions mediated by increased phosphorylation” (DMI Acquisition Corp., priority 2002, dated 2013).

B1: chicken egg yolk phosvitin (dephosphorylated): Phosvitin extracted from the yolks of chicken eggs and dephosphorylated; estimated about 20-50% dephosphorylated (protein, UniProt P02845 1112-1328, looked up)
Phosvitin: AEFGTEPDAKTSSSSSSASSTATSSSSSSASSPNRKKPMDEEENDQVKQARNKDASSSSRSSKSSNSSKRSSSKSSNSSKRSSSSSSSSSSSSRSSSSSSSSSSNSKSSSSSSKSSSSSSRSRSSSKSSSSSSSSSSSSSSKSSSSRSSSSSSKSSSHHSHSHHSGHLNGSSSSSSSSRSVSHHSHEHHSGHLEDDSSSSSSSSVLSKIWGRHEIYQ
modifications: Phosvitin partially dephosphorylated
notes: Phosvitin extracted from the yolks of chicken eggs and dephosphorylated; estimated about 20-50% dephosphorylated
B2: Sigma phosvitin (untreated): Chicken phosvitin purchased from Sigma Chemical Co., used as received without dephosphorylation (protein, UniProt P02845 1112-1328, looked up)
Phosvitin: B1 Phosvitin
modifications: Phosvitin
notes: Chicken phosvitin purchased from Sigma Chemical Co., used as received without dephosphorylation

Test system: IL-8 release by Jurkat cells
Test: Inhibition of IL-8 release from PMA/ionomycin-stimulated Jurkat cells, IL-8 ELISA of supernatants (Example 1)
Assay type: cell-based, human
Settings: PMA and ionomycin; for IL-8 / Percent Inhibition Of IL-8 Release: 24 hours; for IL-8: positive control 1119.2; for Percent Inhibition Of IL-8 Release: vs positive control; for Inhibition of IL-8 release as compared to the positive control (in words): summary of Table 1
Description: Jurkat cells (American Type Culture Collection (ATCC), Rockville, Md.) were cultured (1×10^6 cells per 0.5 ml culture) in IMDM culture medium (ATCC) containing insulin transferrin selenite solution (ITSS; Sigma) with and without phosvitin or BSA at 37° C., 5% CO2, for 30 minutes. Then, phorbol-12-myristate-13-acetate (PMA; […]; Sigma) and ionomycin ([…]; Sigma) were added to stimulate the cells, and the cells were further cultured at 37° C., 5% CO2, for 24 hours.
Cell culture supernatants were analyzed for IL-8 content by ELISA. The IL-8 ELISA was performed as follows. Anti-human IL-8 antibody (Pierce Endogen, Rockford, Ill.; catalogue number M801-E, lot number CK41959) was diluted to 1 μg/ml in phosphate buffered saline, pH 7.2-7.4, and 100 μl of the diluted antibody was added to each well of Nunc Maxisorb ELISA strip plates. The plates were incubated overnight at room temperature. The liquid was aspirated from the wells, and the plates were blotted on a paper towel. Then, 200 μl of assay buffer (phosphate buffered saline, pH 7.2-7.4, containing 4% BSA) were added to each well, and the plates were incubated for 1 hour at room temperature. The liquid was aspirated from the wells, and the wells were washed 3 times with wash buffer (50 mM Tris, 0.2% Tween-20, pH 7.9-8.1) and were then blotted on a paper towel. Standards and supernatant samples (50 μl/well; standards were diluted in assay buffer) were added to the wells, and the plates were incubated for 1 hour at room temperature with gentle shaking. The liquid was aspirated, the wells were washed 3 times with wash buffer, and the plates were then blotted on a paper towel. Then, 100 μl of biotin-labeled anti-human IL-8 (Pierce Endogen, Rockford, Ill.; catalogue number M802-E, lot number CE49513), diluted to 60 ng/ml in assay buffer, were added to each well. The plates were incubated for 1 hour at room temperature, the liquid was aspirated, the wells were washed 3 times with wash buffer, and the plates were blotted on a paper towel. Then, 100 μl of HRP-conjugated streptavidin (Pierce Endogen, Rockford, Ill.; catalogue number N100) in assay buffer, were added to each well. The plates were incubated for 30 minutes at room temperature, the liquid was aspirated, the wells were washed 3 times with wash buffer, and the plates were blotted on a paper towel. Finally, 100 μl of TMB substrate solution (Pierce Endogen, Rockford, Ill.; catalogue number N301) were added to each well. The plates were incubated for 30 minutes at room temperature. The reaction was stopped by adding 100 μl/well of 0.18 M H2SO4. The optical densities at 450 mu and 530 nm were read on an ELISA plate reader and the difference (OD 450-OD 530) calculated.

| Molecule | IL-8 (1.0 mg/ml sample) [pg/mL] | Percent Inhibition Of IL-8 Release (1.0 mg/ml sample) [%] | Inhibition of IL-8 release as compared to the positive control (in words) | IL-8 (0.1 mg/ml sample) [pg/mL] | Percent Inhibition Of IL-8 Release (0.1 mg/ml sample) [%] | IL-8 (0.5 mg/ml sample) [pg/mL] | Percent Inhibition Of IL-8 Release (0.5 mg/ml sample) [%] |
| --- | --- | --- | --- | --- | --- | --- | --- |
| Sigma BSA (untreated): Bovine serum albumin from Sigma (ELIS grade, low fatty acid and IgG), used as received [reference compound] | 1048.1 | 6.3 | did not significantly inhibit the release of IL-8 | – | – | – | – |
| B1 | 686.9 | 38.6 | inhibited IL-8 release as compared to the positive control in a dose-dependent fashion | 1024.7 | 6.4 | 830.4 | 25.8 |
| B2 | 1153.6 | 0 | did not significantly inhibit the release of IL-8 | – | – | – | – |
